The data set is described as follows: protein stability index of a GFP-peptide fusion (GPS, HEK-293T) (PSI 1-6); higher = more stable.
Where [1] appears, read: treatment: DMSO, c terminus: a fixed tail appended.
The mark [2] stands for this setting: treatment: MLN4924 1 uM, 8 h, c terminus: a fixed tail appended.
Setting [3] is: treatment: DMSO, c terminus: native.
The mark [4] stands for this setting: treatment: MLN4924 1 uM, 8 h, c terminus: native.

± gives the standard deviation.
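Note: 24-mer peptide tiles fused after GFP, lentivirally expressed, FACS-sorted into six equal bins by GFP/DsRed ratio, decoded by Illumina sequencing, PSI is the read-weighted mean bin number.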

Consider LENRIQREIALAKKHGTQNKRAAL [CHMP4C], for which the protein stability index by setting is: under setting [1], 4.09 ± 0.26; under setting [2], 4.04 ± 0.25.

In the case of LDSRSTDRVLQWERIDCQGIPPSS [KLHDC2], the protein stability index runs as follows: under setting [1], 4.09 ± 0.29; under setting [2], 3.98 ± 0.24.

For GAGDVVLLQRELAQEDSLNKLALQ [LYSMD4], the protein stability index is, setting by setting: under setting [1], 4.29 ± 0.29; under setting [2], 4.01 ± 0.5.

QYAMTRAQRVRAAMFPETLDEGMQ [CTNNB1]: the protein stability index by setting is: under setting [1], 3.76 ± 0.29; under setting [2], 3.68 ± 0.39.

NKEYIKRLLMSQADKMTAEEVDQM [MYL5]: the protein stability index by setting is: under setting [1], 4.53 ± 0.28; under setting [2], 4.48 ± 0.23.

Turning to WCRDRLLGHREPSAHPVEVFSFDL [TMEM175], the protein stability index runs as follows: under setting [1], 2.39 ± 0.3; under setting [2], 2.25 ± 0.39.

In turn, GLALCPEVQDLLEGCELPDLPSSL [SMG5] gave a protein stability index under setting [1] of 4.05 ± 0.25 and a protein stability index under setting [2] of 3.96 ± 0.25.

In the case of ATLFFHYIKTPLFNPEVAKYLKVP [IQUB], the protein stability index worked out at 2.93 ± 0.21 under setting [1] and 2.57 ± 0.66 under setting [2].

With EPLQALLERASATLQDLVFDECGI [PRAME], the protein stability index was determined as 2.25 ± 0.2 under setting [1] and 2.67 ± 0.18 under setting [2].

For TSPVLPSLIQLLGRNFILFIIFGT [HACD3], the protein stability index runs as follows: under setting [1], 3.11 ± 0.48; under setting [2], 2.98 ± 0.4.

Turning to SVDLMLGLPAQQVGPWLGQLQELL [RSAD1], the protein stability index was 2.38 ± 0.1 under setting [1] and 2.38 ± 0.45 under setting [2].

TLSKPSPMPVSQECFETLRGDERI [CHGA] had a protein stability index under setting [1] of 4.81 ± 0.26 and a protein stability index under setting [2] of 4.75 ± 0.17.

Take WNHIRLQRTAKGKPVLAKDSSNPY [AASDHPPT]: the protein stability index worked out at 2.9 ± 0.39 under setting [1] and 3.19 ± 0.3 under setting [2].

For EEANADLEVKIRDWYQRQRPSEIK [KRT16], the protein stability index is, setting by setting: under setting [1], 4.14 ± 0.64; under setting [2], 4.72 ± 0.27.

For the sequence SNRHGHTCLMISCYKGHKEIAQYL [FEM1C], the protein stability index runs as follows: under setting [1], 2.68 ± 0.55; under setting [2], 2.43 ± 0.39.

Regarding PSMNPDGYEVAAAQGPNKPGYLVG [CPN1], the protein stability index runs as follows: under setting [1], 4.33 ± 0.19; under setting [2], 4.25 ± 0.24.

On to GRHYWEVEVGDKTHWAVGVCRDSV [TRIM39], for which the protein stability index was 2.48 ± 0.41 under setting [1] and 2.42 ± 0.22 under setting [2].

For the sequence ESVVKSEDFSLPAYMDRRDHPLPE [COX4I1], the protein stability index was determined as 5.1 ± 0.17 under setting [1] and 4.82 ± 0.098 under setting [2].

Regarding AIEKAFQLWSNVTPLTFTKVSEGQ [MMP1], the protein stability index runs as follows: under setting [1], 2.45 ± 0.49; under setting [2], 2.3 ± 0.33.

LLEGTPSSASEGDEDLRRQMQDDE [PALM] displayed a protein stability index under setting [1] of 5.45 ± 0.25 and a protein stability index under setting [2] of 5.49 ± 0.28.

Sequence VLMWLLTYVGALFNGLTLLLMAVV [RTN1] yielded a protein stability index under setting [1] of 2.51 ± 0.29 and a protein stability index under setting [2] of 2.42 ± 0.13.

In the case of SDTRVGAPATGSGTPGPFTKEGGM [CHIT1], the protein stability index under setting [1] turned out to be 4.76 ± 0.26 and the protein stability index under setting [2] amounted to 4.98 ± 0.14.

NNKKWILSASKDRTMRLWNIEEID [WDR88] returned a protein stability index under setting [1] of 2.66 ± 0.12 and a protein stability index under setting [2] of 2.86 ± 0.44.

Consider GRQKYKRRPEVDPLPFPGPFPAGP [ESRRA], for which the protein stability index is, setting by setting: under setting [1], 3.87 ± 0.22; under setting [2], 4.02 ± 0.26.

Turning to YNVSPLSWNVAVKFLMARKFDVLR [PTPN9], the protein stability index came to 3.02 ± 0.62 under setting [1] and 2.46 ± 0.88 under setting [2].

As for HIFNTLRSHLIDKGMLTSTTEDE [CDS2], the protein stability index reads like this: under setting [3], 2.71 ± 0.042; under setting [4], 3.23 ± 0.39.

As for SEGLVGALMHVMQKRSRAIHSSDE [WAS], the protein stability index was determined as 3.67 ± 0.3 under setting [1] and 3.79 ± 0.15 under setting [2].

As to CPTLIYRETYPRTPYVRWNYVAKN [SOAT2], the protein stability index under setting [1] was found to be 2.06 ± 0.23 and the protein stability index under setting [2] is 2.36 ± 0.39.

Consider MSRQFTCKSGAAAKGGFSGCSAVL [KRT71], for which the protein stability index came out at 2.59 ± 0.35 under setting [1] and 2.18 ± 0.43 under setting [2].

The sequence ETVVNRIAAGEVIQRPANAIKEMI [MLH1] returned a protein stability index under setting [1] of 3.17 ± 0.17 and a protein stability index under setting [2] of 3.36 ± 0.19.

As to AADGETNGSCENSDASSHANAAKH [EHMT1], the protein stability index runs as follows: under setting [1], 5.51 ± 0.12; under setting [2], 5.35 ± 0.14.

As for MYDNELWAPASEGLKPGPEDGPGK [SERTAD1], the protein stability index reads like this: under setting [1], 4.99 ± 0.46; under setting [2], 5.25 ± 0.22.

PVVSAVWGHCEVTMRYINGLDPEP [SPSB4]: the protein stability index is 2.28 ± 0.23 under setting [1] and 2.54 ± 0.53 under setting [2].

In turn, SSPMVQVDEKGEKVRPSHKRCIVI [LARP4] came in with a protein stability index under setting [1] of 2.69 ± 0.16 and a protein stability index under setting [2] of 2.63 ± 0.12.

As to LLSLNSLLPESGIVADIELENVLD [TFE3], the protein stability index reads like this: under setting [1], 3.3 ± 0.49; under setting [2], 3.3 ± 0.19.

As for VRKEDMTYAVRKLDNTKFRSHEGE [SRSF1], the protein stability index by setting is: under setting [1], 4.32 ± 0.13; under setting [2], 4.13 ± 0.16.

Regarding HLANHDDLISKSFQGSQGRAYLFN [YPEL3], the protein stability index was determined as 2.8 ± 0.075 under setting [1] and 3.03 ± 0.24 under setting [2].

On to IYLINQKWFGRKRTLSAFLCLGGL [SLC22A15], for which the protein stability index reads like this: under setting [1], 3.15 ± 0.26; under setting [2], 3.01 ± 0.56.

Consider PRTRGSWSQPQPLKAPCLNGDTT [RASAL3], for which the protein stability index reads like this: under setting [3], 3.62 ± 0.36; under setting [4], 3.5 ± 0.36.

NKINAGMYILSPAVLRRIQLQPTS [GMPPB] came in with a protein stability index under setting [1] of 2.24 ± 0.24 and a protein stability index under setting [2] of 2.28 ± 0.38.

LFSLKESPEKFQIEANFPRRVLPC [FAF2] gave a protein stability index under setting [1] of 2.61 ± 0.3 and a protein stability index under setting [2] of 2.84 ± 0.24.

Take KENSHQVKEELSQKFDTLYAILDE [TRIM63]: the protein stability index worked out at 4.77 ± 0.27 under setting [1] and 4.57 ± 0.18 under setting [2].

In the case of TGERPYECNECGKAFSRSSGLFNH [ZSCAN9], the protein stability index by setting is: under setting [1], 2.48 ± 0.4; under setting [2], 2.6 ± 0.37.

In the case of LKGAFPARLKKVLIVGAPIWFRVP [PTPN9], the protein stability index is, setting by setting: under setting [1], 2.96 ± 0.7; under setting [2], 2.84 ± 0.5.

FTEASMMMSLTKLADKELVHMISW [ESR2]: the protein stability index was 3.29 ± 0.78 under setting [1] and 3.48 ± 1.2 under setting [2].

With PRPNRLFLRQLRASHLGNELEGTE [C2CD2L], the protein stability index under setting [1] was determined as 3.92 ± 0.15 and the protein stability index under setting [2] came out at 4.05 ± 0.26.

Regarding NFEKLRLSLQDQVDTLTFQSQSLR [MTUS2], the protein stability index by setting is: under setting [1], 3.01 ± 0.22; under setting [2], 3.14 ± 0.37.

As for TPHMLLDLSDLLQVDSLRPASFPT [BRF1], the protein stability index is, setting by setting: under setting [1], 2.28 ± 0.2; under setting [2], 2.43 ± 0.2.

On to PIDQGPAIGRVRVLEEQLVKAKEQ [FUT8], for which the protein stability index reads like this: under setting [1], 5 ± 0.16; under setting [2], 5.09 ± 0.27.

Take AQEALREKAAALERQLKVMASDHR [LRRC45]: the protein stability index is, setting by setting: under setting [1], 4.26 ± 0.27; under setting [2], 4.29 ± 0.23.

Regarding VAVDFTWEEWQFLSPAQKDLYRDV [ZNF649], the protein stability index was determined as 2.54 ± 0.73 under setting [1] and 2.64 ± 0.22 under setting [2].

As for KGHERTVQYLQHLGTENLHLIFSY [VPS39], the protein stability index by setting is: under setting [1], 2.39 ± 0.46; under setting [2], 2.59 ± 0.67.

Turning to SDPSTIEASNFQMDRKTRFIIHGF [PNLIPRP1], the protein stability index is, setting by setting: under setting [1], 2.42 ± 0.067; under setting [2], 2.37 ± 0.26.

RRLPLAFRDATSAPLRKLSVDLIK [DYRK1B]: the protein stability index is 2.46 ± 0.39 under setting [1] and 2.45 ± 0.26 under setting [2].

Regarding IRVRGQRASRLQAPVLVAAPHSTF [LPCAT4], the protein stability index reads like this: under setting [1], 2.6 ± 0.17; under setting [2], 2.73 ± 0.22.

As to FRSRSRLTHLSLSRRASESSLSSE [CDC25B], the protein stability index worked out at 3.84 ± 0.22 under setting [1] and 3.99 ± 0.099 under setting [2].

In the case of LGLVARQEDSGLRDHSVRVLISNH [AUP1], the protein stability index came to 3 ± 0.15 under setting [1] and 3.01 ± 0.36 under setting [2].

For AKVKPFDPKITCKQECLITTFQDV [TPH1], the protein stability index reads like this: under setting [1], 2.75 ± 0.52; under setting [2], 2.42 ± 0.52.

Turning to VSGINGDIRAKKIASIADVCESMK [HNF4A], the protein stability index by setting is: under setting [1], 3.52 ± 0.15; under setting [2], 3.72 ± 0.31.

TPGLGVVAVLLLFLVVREPPRGAV [SPNS1] had a protein stability index under setting [1] of 2.69 ± 0.44 and a protein stability index under setting [2] of 3.28 ± 0.6.

PSNGRIDIKQLIAKKIKLTAEAEE [SOAT1] showed a protein stability index under setting [1] of 3.19 ± 0.59 and a protein stability index under setting [2] of 3.33 ± 0.31.

Take TSTGSAASSGSNSSASSEQGLLGR [SPRY1]: the protein stability index by setting is: under setting [1], 5.07 ± 0.28; under setting [2], 5.17 ± 0.099.

As to PQERTLTLVDTGIGMTKADLINNL [HSP90AB1], the protein stability index stood at 3.49 ± 0.33 under setting [1] and 3.67 ± 0.26 under setting [2].

In turn, DLLCAQLQLPQLSDLGLLRLCTWL [FANCE] registered a protein stability index under setting [1] of 2.53 ± 0.35 and a protein stability index under setting [2] of 2.78 ± 0.42.

With LFKAHFRGEVLPEEITEESLEESV [INTS3], the protein stability index under setting [1] was found to be 4.9 ± 0.091 and the protein stability index under setting [2] came to 4.962 ± 0.037.

Take EDSSNQEEEGPSTFPDLESEFQAA [MAGEA3]: the protein stability index is, setting by setting: under setting [1], 5.51 ± 0.28; under setting [2], 5.48 ± 0.16.

Consider TIKRSSQTGEWQNIAIMTEEPELS [GFOD1], for which the protein stability index amounted to 4.42 ± 0.33 under setting [1] and 4.26 ± 0.43 under setting [2].

Regarding ELTFSYIAFDGVVGSGGRRDSTAR [RTN2], the protein stability index reads like this: under setting [1], 3.17 ± 0.079; under setting [2], 3.15 ± 0.28.

Regarding LPIVAIENILSFMSYDEISQLRLV [FBXO28], the protein stability index was found to be 2.94 ± 0.5 under setting [1] and 2.81 ± 0.43 under setting [2].

Regarding SDVLTISGTIMKIGIEAKNLASYD [MCOLN1], the protein stability index by setting is: under setting [1], 2.39 ± 0.24; under setting [2], 2.5 ± 0.33.

Regarding RVEFPRSGRGTGRGGGGGGGGGAP [SRSF1], the protein stability index reads like this: under setting [1], 4.7 ± 0.39; under setting [2], 4.8 ± 0.28.

In the case of IQSLTCEVDGLRGTNEALLRQLRE [PRPH], the protein stability index amounted to 3.74 ± 0.4 under setting [1] and 3.96 ± 0.24 under setting [2].

The values above are taken from the supplement of paper PMC10567573.
